Measured values reported in the RNAGym collection of RNA variant scans (doi:10.7554/elife.80360).

B1: HDV Ribozyme (parent)
chain: GGCCGGCAUGGUCCCAGCCUCCUCGCUGGCGCCGGCUGGGCAACAUUCCGAGGGGACCGUCCCCUCGGUAAUGGCGAAUGGGACCCA

Variants of: B1
Test: self-cleavage, relative activity (ratio to wild type); higher = more cleavage; co-transcriptional

Variant | self-cleavage
G52C G82U | 0.283
G52C G82C | 0.141
A51U G53C | 0.776
A51U G53U | 1.11
G52C G59U | 0.962
G52C G59C | 0.987
G52C G59A | 1.02
A51G G59A | 0.787
A51G G81A | 0.285
A51G A71C | 0.458
A51G A71U | 0.629
G50U G68C | 0.465
G50U G68A | 0.694
A51C G80A | 0.345
A51G C85A | 0.673
G50U G76A | 1.05
G52U A87U | 1
G52U A87G | 0.906
G50U C75A | 0.0773
G50U C75G | 0.277
G50U C75U | 0.13

Variant | self-cleavage
G52C C64A | 0.753
G52C C64G | 0.739
A51C U69A | 1.13
A51C U69G | 1.15
A51C U69C | 0.931
A51G C58U | 0.95
A51G C58A | 0.98
G52C C63G | 0.892
A51U C75U | 0.177
A51U C75G | 0.344
A51U C75A | 0.123
G52A G55C | 0.923
G52A A70U | 0.858
G52A A70C | 0.791
G52U G67A | 0.265
G50U U79A | 0.831
G50U U79G | 0.802
A51C G67A | 0.77
A51C G67U | 0.939
A51U C58U | 1.17
A51G C84U | 0.975

Variant | self-cleavage
A51G C84G | 0.332
A51C U60G | 0.95
G52U A78C | 0.292
G52U A78U | 0.378
G52A C63G | 0.415
G52A C63U | 0.969
A51C G52A | 1.04
A51C G52U | 0.601
A51C G52C | 0.332
A51G C57U | 0.85
A51C G55C | 0.7
A51C G55U | 0.944
A51G A83G | 0.916
A51G A83U | 0.356
A51U C64G | 0.578
A51U C64A | 0.845
A51U C64U | 0.927
A51G G67A | 0.831
A51G G67C | 0.864
A51G G80U | 0.229
A51G G80C | 0.141

Variant | self-cleavage
G52U C62U | 0.754
G52C C58U | 1.24
A51G U79G | 0.831
A51G U79A | 0.675
A51G C63U | 0.969
A51G C63G | 0.538
G52U C58U | 0.898
G52U G74C | 0.363
A51U C57A | 0.814
A51U C57U | 0.801
G52C U79A | 0.906
G52C U79C | 0.582
A51G C75G | 0.128
A51G C75A | 0.17
G52A A87C | 1.13
G52A A87U | 0.897
G52U A71U | 0.781
G52U G54C | 0.684
A51G G53C | 0.665
A51G G53U | 0.795
